Series [1] deals with T1, 23 amino acid substrate peptide Ac-MTDFYVPVSLCTPSRAALLTGRS-NH2 (SEQ ID NO: 46).
T1 chain: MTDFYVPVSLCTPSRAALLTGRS

Series [2] in a line: Stability of purified recombinant FGE upon storage (SDS-PAGE, Coomassie staining or western blotting). It counts as physicochemical. The protocol: Purified enzymes are preferably stored frozen at −20° C. or −80° C., but it is known that the freeze-thaw cycle can lead to a decrease in the stability of proteins and/or accompanied loss of enzymatic activity. To minimize this effect, it is common to add stabilizing agents to preserve the stability and functionality of proteins during long-term storage. Analyses of conditions that affect the stability of purified recombinant fl-FGE-R69A/R72A and Δ72-FGE-wt were performed. The stability was assessed by analyzing the purified protein by SDS-PAGE and subsequently visualized by Coomassie staining or western blotting using FGE anti-serum as described above.
Generation of truncated FGE was increasingly detected upon removing the imidazole by size exclusion chromatography (Panel SEC, FIG. 17A). To gain further insights, aliquots of the purified fraction from size exclusion chromatography were incubated at 4° C. for either 3.5 h or 20 h in the presence of various additives like NaCl, imidazole, arginine and glycerol and later assessed by western blot using FGE anti-serum.

Series [3] concerns 23-aa long substrate peptide Ac-MTDFYVPVSLCTPSRAALLTGRS-NH2. Put plainly: In vitro FGE activity assay (MALDI-ToF MS) with purified recombinant FGE from insect cells. It counts as biochemical. As to conditions: for DTT concentration of maximal activity: 0-15 mM DTT, pH 9.3, 15 min 37° C.; for pH of maximal activity: MTGC buffer pH 6.5-11.0. The procedure: a) fl-FGE-R69A/R72A (SEQ ID NO: 4) is active and e.g. generates FGly within a 23-aa long substrate peptide 16 pmol of the 23 amino acid (aa) long peptide Ac-[…]-NH2 (SEQ ID NO:46) were incubated with 12 ng of fl-FGE-R69A/R72A for 20 min at 37° C. under assay conditions (50 mM Tris, 67 mM NaCl, 15 μM CaCl2, 0.33 mg/mL BSA, 2 mM DTT, pH 9.3 in a total volume of 30 μL).
The reaction was stopped by adding 3 μL of 20% trifluoroacetic-acid (TFA), immediately followed by vortexing and by a short centrifugation at 10000×g. The peptide was purified and concentrated by C18-Zip-Tip treatment. Therefore the Zip-Tip was prepared by pipetting three times 10 μL of 50% acetonitrile, 0.05% TFA in water and three times 10 μL 0.1% TFA in water. The 33 μL sample was pipetted 10 times up and down. The bound peptide was washed by pipetting 10 times 10 μL 0.1% TFA in water and was eluted in 10 μL 50% acetonitrile, 0.05% TFA in water by pipetting 10 times up and down. For MS-analysis the following matrix was prepared freshly: 40 μL of a saturated α-cyano-hydroxycinnamic acid solution in aceton were added to 10 μL of a solution containing 10 mg/mL nitrocellulose in 50% Aceton/50% Isopropanol (v/v). 0.5 μL of the matrix were spotted onto a polished steel target and 1 μL of the purified sample was added. The dried sample spot was analyzed by MALDI-ToF mass spectrometry using the Ultra flextreme spectrometer from Bruker Daltronics. The cysteine containing substrate peptide (2526.28 [M+H]^+) and the FGly containing product peptide (2508.29 [M+H]^+) were detected.
b) fl-FGE-R69A/R72A (SEQ ID NO:4) is able to generate FGly by using GSH as reductant:10 times stock solutions of DTT and GSH were prepared in 20 mM Tris pH 9.3. For the reaction, 13 ng of Baculo-fl-FGE were incubated with 16 pmol of the 23 aa-long substrate peptide, 2 mM DTT or 5 mM reduced glutathione for 15 min at 37° C. under assay conditions (50 mM Tris, 67 mM NaCl, 15 μM CaCl2, 0.33 mg/mL BSA, pH 9.3 in a total volume of 30 μL). The reactions were stopped and prepared further for MS-analysis as described above. The ratio of the intensity of the FGly-product peptide divided by the sum of the substrate and product intensities multiplied with 100 yields %-turnover of the substrate peptide. Based on that, specific activities were calculated.
The dependence of FGly-generating activity of recombinant fl-FGE-R69A/R72A on the reducing agents DTT and GSH were analyzed at pH 9.3 under standard assay conditions (FGE and substrate peptide were incubated at 37° C. in 50 mM Tris/HCl, 67 mM NaCl, and 0.33 mg/ml BSA in 30 μl volume. The reaction was started by addition of substrate) using a MALDI-mass spectrometry based in vitro activity assay (Ennemann et al., 2013 and FIG. 7).
The pH-dependence for in vitro activity of recombinant fl-FGE-R69A/R72A and Δ72-FGE-wt was analyzed under optimal DTT and GSH concentrations. Accordingly, the activity of recombinant fl-FGE-R69A/R72A in the presence of 2 mM DTT, under standard assay conditions, was measured in buffers of pH ranging from pH 6.5 to 11.0 (FIG. 19A). […] In the presence of 5 mM GSH, the maximal activity was also observed at pH 9.3 and a very similar activity profile ranging from pH 7.5 to 11 (FIG. 19B). […] In summary, fl-FGE-R69A/R72A requires less alkaline conditions for optimum activity than Δ72-FGE-wt.

B1: Δ72-FGE (SEQ ID NO: 6), produced in High Five insect cells (protein)
chain: ADLGSSMEFEANAPGPVPGERQLAHSKMVPIPAGVFTMGTDDPQIKQDGEAPARRVTIDAFYMDAYEVSNTEFEKFVNSTGYLTEAEKFGDSFVFEGMLSEQVKTNIQQAVAAAPWWLPVKGANWRHPEGPDSTILHRPDHPVLHVSWNDAVAYCTWAGKRLPTEAEWEYSCRGGLHNRLFPWGNKLQPKGQHYANIWQGEFPVTNTGEDGFQGTAPVDAFPPNGYGLYNIVGNAWEWTSDWWTVHHSVEETLNPKGPPSGKDRVKKGGSYMCHRSYCYRYRCAARSQNTPDSSASNLGFRCAADRLPTMDSGRGSHHHHHHH
In the case of B1, in series [1], the “conversion of the Cys substrate peptide to the FGly product peptide (MALDI-ToF MS), DTT as reductant” value is reported as “The Δ72-FGE (SEQ ID NO: 6) variant also converts the cysteine-containing substrate peptide to the FGly-containing product peptide in presence of the reductant DTT”.

B2: dimeric FGE: disulfide-bridged dimeric form of recombinant fl-FGE-R69A/R72A separated by size exclusion chromatography (protein)
chain: ADEFSQEAGTGAGAGSLAGSCGCGTPQRPGAHGSSAAAHAYSAEANAPGPVPGERQLAHSKMVPIPAGVFTMGTDDPQIKQDGEAPARRVTIDAFYMDAYEVSNTEFEKFVNSTGYLTEAEKFGDSFVFEGMLSEQVKTNIQQAVAAAPWWLPVKGANWRHPEGPDSTILHRPDHPVLHVSWNDAVAYCTWAGKRLPTEAEWEYSCRGGLHNRLFPWGNKLQPKGQHYANIWQGEFPVTNTGEDGFQGTAPVDAFPPNGYGLYNIVGNAWEWTSDWWTVHHSVEETLNPKGPPSGKDRVKKGGSYMCHRSYCYRYRCAARSQNTPDSSASNLGFRCAADRLPTMDSGRGSHHHHHHH
As for B2, in series [2], the “stability of dimeric vs monomeric form” value is “more stable than monomeric fl FGE forms”. The “DTT concentration of maximal activity” value in series [3] fell in the range of 0.1 to 1 mM. For the same molecule, in series [3] (pH 9.3), the “DTT concentration for optimal activity under in vitro conditions” value lay in the range of 0.1 to 2 mM.

B3: fl-FGE-R69A/R72A: human full length FGE variant, Arginine-69 and Arginine-72 converted to Alanine, non-cleavable furin motif, SEQ ID NO:4 (protein)
chain: ADEFSQEAGTGAGAGSLAGSCGCGTPQRPGAHGSSAAAHAYSAEANAPGPVPGERQLAHSKMVPIPAGVFTMGTDDPQIKQDGEAPARRVTIDAFYMDAYEVSNTEFEKFVNSTGYLTEAEKFGDSFVFEGMLSEQVKTNIQQAVAAAPWWLPVKGANWRHPEGPDSTILHRPDHPVLHVSWNDAVAYCTWAGKRLPTEAEWEYSCRGGLHNRLFPWGNKLQPKGQHYANIWQGEFPVTNTGEDGFQGTAPVDAFPPNGYGLYNIVGNAWEWTSDWWTVHHSVEETLNPKGPPSGKDRVKKGGSYMCHRSYCYRYRCAARSQNTPDSSASNLGFRCAADRLPTMDSGRGSHHHHHHH
modifications: double fl FGE variant R69A / R72A
In the case of B3, the “stability with added imidazole” value in series [2] (250 mM imidazole, one freeze-thaw cycle, two weeks at −80° C.) is given as “more stable”. In series [2] (Ni-NTA fractions containing 250-500 mM imidazole, long-term storage −80° C.), the “truncated fragment (~37 kDa) of the total protein after thawing” value is given as “less than 5%”. For the same molecule, the “stability after long-term storage” value in series [2] (Ni-NTA fractions containing 250-500 mM imidazole, −80° C.) was “highly stable”. In addition, the “truncation on prolonged incubation” value in series [2] (SEC fraction (imidazole removed), 4° C., 3.5 h or 20 h) is given as “led to generation of truncated fragments”. For the same molecule, the “truncation on incubation with additive” value in series [2] (SEC fraction, 4° C., 250 mM imidazole or 850 mM NaCl) was “prevented further increase of FGE truncation”. In addition, the “specific activity in presence of the control reductant DTT” value in series [3] (2 mM DTT, 15 min 37° C., pH 9.3, 4 measurements) worked out at 24.1±1.7 mU/mg. Further, the “pH of maximal activity” value in series [3] (2 mM DTT) and in series [3] (5 mM GSH) was 9.3 in each case. Moreover, the “FGly generation in substrate peptide in presence of DTT” value in series [3] (2 mM DTT, pH 9.3, 37° C.) is recorded as “is active”. Also, the “specific activity in presence of GSH” value in series [3] (5 mM reduced glutathione, 15 min 37° C., pH 9.3, 4 measurements) worked out at 15.6±1.3 mU/mg. The “FGly generation using GSH as reductant” value in series [3] (5 mM reduced glutathione, pH 9.3) was “active in presence of GSH”. In addition, in series [3] (in vitro, pH 9.3), the “dependence of activity on reducing agent (DTT or GSH)” value is “fully functional in the presence of either DTT or glutathione (GSH)”. In addition, the “activity in the absence of externally added reducing agents” value in series [3] (pH 9.3) was “very low activity”. The specific activity in series [3] (purified from Baculovirus expression system (Example 7)) was 33 mU/mg.

B4: monomeric FGE (protein)
chain: ADEFSQEAGTGAGAGSLAGSCGCGTPQRPGAHGSSAAAHAYSAEANAPGPVPGERQLAHSKMVPIPAGVFTMGTDDPQIKQDGEAPARRVTIDAFYMDAYEVSNTEFEKFVNSTGYLTEAEKFGDSFVFEGMLSEQVKTNIQQAVAAAPWWLPVKGANWRHPEGPDSTILHRPDHPVLHVSWNDAVAYCTWAGKRLPTEAEWEYSCRGGLHNRLFPWGNKLQPKGQHYANIWQGEFPVTNTGEDGFQGTAPVDAFPPNGYGLYNIVGNAWEWTSDWWTVHHSVEETLNPKGPPSGKDRVKKGGSYMCHRSYCYRYRCAARSQNTPDSSASNLGFRCAADRLPTMDSGRGSHHHHHHH
In the case of B4, the “DTT concentration of maximal activity” value in series [3] worked out at 2 mM. Also, the “DTT concentration for optimal activity under in vitro conditions” value in series [3] (pH 9.3) was in the range of 1 to 10 mM.

(Values after patent publication US20150141617A1, “PRODUCTION AND PURIFICATION OF ACTIVE EUKARYOTIC FORMYLGLYCINEGENERATING ENZYME (FGE) VARIANTS” (Universität Bielefeld, priority 2013, published 2015).)
